# Patent publication US20250027068
# Numbering of substitutions follows the chain as printed.
# B1: PRT-535 (protein)
# chain: MANQEIRYSGDSEWANKKVWVYGITPPEEKAWFYSTYYLPWKKEYGWYDCNKRNPTADGMMCWAATASNLMHWWIAQNKEYIDLYGDKYKGPDKINFNGEQMFDVKEYIDPLDKPQESDIFQCFIDKAFADLSTKHEAGKGDEGINWFIHGIIPSYPAHGPTPVKLRYPYNPAGYFKDVFPRGDGVVLLGNNGDFKELGKERFNETIKDALANKKGIGLSIGPVNVRSSHVVTMWGAEFDENGDVSYIYMADNNDRWGVGCIRYQIVYVEGGTYTCYKTEIIGSDRPIPINRLVTLELGEEYWKQTNLEHHHHHH
# B2: PRT-569 (protein)
# chain: MANQEIRYSKATPSHITSVWTKGVTPPEQFIYNEDVLHAPYIANQGWYDITKTFNGKDDLLCGAATAGNMLHWWFDQNKEQIENYLKKHPEKQKINFNGEQMFDVKEAIDTKDSQTNSALFSYFKDKAFPYLSTKHLGVFPDHVIDMFINGYRLSLTNHGPTPVKEQTKDPRGGIFDAVFTRGDQSKLLTSRHDFKEKTLNEISQLIKQELTEGKALGLSHTYANVRINHVINLWGADFNAEGNLEAIYVTDSDSNASIGMKKYYVGVNSAGKVAISAKEIEGDNIGAQVLGLFTLSTGQDIWQQTNLEHHHHHH
# B3: PRT-537 (protein)
# chain: B1 chain with G10S, K30G, T66S, M71L, A128S, E143A, Y156S, M234I, V269E, G283P
# B4: PRT-42 (protein)
# chain: MANQEIRYSEVTPYHVTSVWTKGVTPPANFTQGEDVFHAPYVANQGWYDITKTFNGKDDLLCGAATAGNMLHWWFDQNKDQIDRYLEEHPEKQKINFNGEQMFDVKEAIDTKNDQLDSKLFEYFKEKAFPYLSTKHLGVFPDLVIDMFINGYRLSLTNHGPTPVKEGSKDPRGGFFDAVFTRGDQSKLLTSRHDFKEKNLKEISDLIKKELTEGKALGLSHTYANVRINHVINLWGADFDSNGNLKAIYVTDSDSNASIGMKKYFVGVNSAGKVAISAKEIKEDNIGAQVLGLFTLSTGQDSWNQTN
# B5: PRT-43 (protein)
# chain: B4 chain with L116T, F175I, F195L
# B6: PRT-44 (protein)
# chain: B4 chain with K57G, D114S, L116T, I145L, A178D
# B7: PRT-45 (protein)
# chain: B4 chain with K57G, D80E, D114S, L116T, I145L, F175I, K201E
# B8: PRT-46 (protein)
# chain: B4 chain with Q93A, I145L, K263R
# B9: PRT-47 (protein)
# chain: B4 chain with T51N, K57G, E87K, Q93A, L116T, D117N, I145L, I259V
# B10: PRT-48 (protein)
# chain: MANQEIRYSEVTPYHVTSVWTKGVTPPANFTQGEDVFHAPYKANQGWYDINKTFNGGDDLLCGAATAGNMLHWWFDQNKDYIDRYLEEHPEKQKINFNGEQMFDVKEAIDTKNNQTDSKLFEYFKEKAFPYLSTKHLGVFPDRVIDMFINGYRLSLTNHGPTPVKEGSKDPRGGFFDDVFTRGDQSKLLTSRHDFKEKNLKEISDLIKKELKEGKALGLSHTYANVRINHVINLWGADFDSNGNLKAIYVTDSDSNASVGMKKYRVGVNSAGKVAISAKEIKEDNIGAQVLGLFTLSTGQDSWNQTN
# B11: PRT-49 (protein)
# chain: B4 chain with Q81Y, Q93A, L116T, L143H, A178D, T181G, I259V
# B12: PRT-50 (protein)
# chain: MANQEIRYSEVTPYHVTSVWTKGVTPPANFTQGEDVFHAPYVANQGWYDINKTFNGKDDLLCGAATAGNMLHWWFDQNKEQIERYLKEHPEKGKINFNGEQMFDVKEAIDTKNNQTDSKLFEYFKEKAFPYLSTKHLGVFPDRVLDMFINGYRLSLTNHGPTPVKEGSKDPRGGFFDDVFGRGDQSKLLTSRHDFKEKNLEEISDLIKKELTEGKALGLSHTYANVRINHVINLWGADFDSNGNLKAIYVTDSDSNASVGMKKYFVGVNSAGKVAISAKEIKEDNIGAQVLGLFTLSTGQDSWNQTN
# B13: PRT-3 (protein)
# chain: MRNATEAYAKEVPHQITSVWTKGVTPLTPEQFRYNNEDVIHAPYLAHQGWYDITKAFDGKDNLLCGAATAGNMLHWWFDQNKTEIEAYLSKHPEKQKIIFNNQELFDLKAAIDTKDSQTNSQLFNYFRDKAFPNLSARQLGVMPDLVLDMFINGYYLNVFKTQSTDVNRPYQDKDKRGGIFDAVFTRGDQTTLLTARHDLKNKGLNDISTIIKQELTEGRALALSHTYANVSISHVINLWGADFNAEGNLEAIYVTDSDANASIGMKKYFVGINAHGHVAISAKKIEGENIGAQVLGLFTLSSGKDIWQKLS
# B14: PRT-51 (protein)
# chain: B4 chain with T51N, Q81Y, E87K, E88K, Q93A, I145L, A178D, K201E, S241E, K263R
# B15: PRT-52 (protein)
# chain: B10 chain with K42V, D80E, E87K, N114S, R143L, D178A, L200Y, K201N, R265F
# B16: PRT-53 (protein)
# chain: B4 chain with F175I
# B17: PRT-54 (protein)
# chain: B4 chain with D114H
# B18: PRT-55 (protein)
# chain: B4 chain with Q93A, D114H, T181G
# B19: PRT-56 (protein)
# chain: B4 chain with T51N, D80E, Q81Y, D114H, I145L, I259V
# B20: PRT-57 (protein)
# chain: B4 chain with T51N, Q81Y, D114H, T181G
# B21: PRT-58 (protein)
# chain: B4 chain with T51N, D80E, Q81Y, E87K, D114H, I145L, A178D
# B22: PRT-59 (protein)
# chain: B4 chain with D83K, D114H, L143H
# Biological target: pooled human IgG
Protein,Enzyme Activity Endpoint Assay: Fab′2 [ng/µL],Enzyme Activity Endpoint Assay: Fc [ng/µL],Enzyme Activity Endpoint Assay: IgG [ng/µL],Enzyme Activity Endpoint Assay: scIgG [ng/µL],Enzyme Activity Endpoint Assay (purified): Fab′2 [ng/µL],Enzyme Activity Endpoint Assay (purified): Fc [ng/µL],Enzyme Activity Endpoint Assay (purified): IgG [ng/µL],Enzyme Activity Endpoint Assay (purified): scIgG [ng/µL]
B1,6,0,1530,0,,,,
B2,723,294,0,0,,,,
B3,0,0,1000,0,,,,
B4,0,54,26,53,,,,
B5,23,89,13,32,,,,
B6,3,78,14,60,,,,
B7,3,76,8,67,,,,
B8,20,101,15,39,,,,
B9,0,5,132,0,,,,
B10,0,5,141,0,,,,
B11,30,96,18,40,,,,
B12,0,5,135,0,,,,
B13,14,72,11,33,,,,
B14,0,11,118,0,,,,
B15,0,12,122,0,,,,
B16,7,84,9,61,,,,
B17,0,24,110,10,,,,
B18,,,,,0,70,19,57
B19,,,,,0,13,125,3
B20,,,,,0,52,44,55
B21,,,,,0,9,125,1
B22,,,,,6,70,8,56
